Data: patent publication US20120082663A1 (Genentech, published 2012)

Key:
[1] = target: human c-Met on cells (BaF3-hMet transfected with full-length human c-Met cDNA; A549 and H358 cells) (human, UniProt P08581 25-1390); assay: cell-based or functional assay
canine HGF receptor = canine HGF receptor (canine, UniProt Q75ZY9 25-935, limits assumed); assay: cross-species binding test, method not described (data not shown)
[2] = target: murine (mouse) HGF receptor (murine (mouse), UniProt P16056 25-931, limits assumed); assay: as above
[3] = target: T1, cMet-Ig protein (biotinylated) (UniProt P08581 25-929, biotinylated with NHS-X-biotin); assay: electrochemiluminescent competition assay: antibody (3333-0.21 nM) against HGF-Ruthenium Tag binding to cMet-Ig-biotin
T1 construct: Purified cMet-Ig produced at Genentech; also called cMet-Ig-biotin; not shown: Ig part not described
Method: (§1) Purified cMet-Ig protein produced at Genentech (South San Francisco, Calif.) was biotinylated by incubating with 20-fold molar excess NHS-X-Biotin in 0.1 M NaHCO3, pH 8.5 using biotin-X-NHS (Research Organics, Cleveland, Ohio). Purified human 2-chain HGF produced at Genentech was labeled with BV-TAG (cat #110034) via NHS-ester chemistry according to manufacturer's directions (BioVeris International, Gaithersburg, Md.). cMet-Ig-biotin (500 ng/mL), HGF-Ruthenium Tag (250 ng/mL), and titrations of OA5D5 antibody ranging from 3333-0.21 nM of antibody were incubated together in a volume of 100 ul of assay diluent: PBS ±0.5% BSA/0.5% Tween 20/0.033% Proclin (Supelco Inc. Bellefonte Pa.). The mixtures were incubated in sealed polypropylene round bottom 96 well plates (Corning) for 2-4 hours at room temperature with shaking Streptavidin magnetic beads (Dynabeads, BioVeris) were added. Following a final 45 min incubation with vigorous shaking, the plates were read using a BioVeris M-Series instrument (BioVeris International, Gaithersburg, Md.).

[4] = target: T1, cMet-Ig protein (biotinylated); assay: electrochemiluminescent competition assay in solution: inhibition of 2.5 nM HGF-Tag (ruthenium-labelled HGF) binding to 5 nM cMet-biotin; antibody titrated
Method: as §1

[5] = target: T2, human HGF receptor Fc fusion (HGFR-Fc) (human, UniProt P08581 25-929, limits assumed); assay: SPR (BIAcore-2000), HGFR-Fc immobilised on a CM5 chip, 1:1 Langmuir fit
T2 construct: Generated and used as an Fc fusion; also called HFGR-Fc; b-HGFR-Fc (biotinylated)
Method: (§2) Affinity determinations were performed by surface plasmon resonance using a BIAcore™-2000. HGFR-Fc was immobilized (˜1000 response units (RU)) on a CM5 chip and varied concentrations of Fab (4 to 500 nM) in PBST were injected. After each injection the chip was regenerated using 100 mM HCl. Binding response was corrected by subtracting the RU from a blank flow cell. A 1:1 Languir model of simultaneous fitting of kₒₙ and koff was used for kinetics analysis.

[6] = target: T2, human HGF receptor Fc fusion (HGFR-Fc); assay: SPR (Biacore), monovalent affinity, HGFR-Fc; murine 5D5, monovalent affinity
[7] = target: T2, human HGF receptor Fc fusion (HGFR-Fc); assay: SPR (BIAcore-2000), HGFR-Fc immobilised on a CM5 chip, Fab injected at 4 to 500 nM, 1:1 Langmuir fit
Method: as §2

[8] = target: T2, human HGF receptor Fc fusion (HGFR-Fc); assay: SPR (BIAcore-2000), Fab injected over immobilized HGFR-Fc; humanized clone (5D5 graft plus R94S) as Fab
Method: as §2
A library was generated in which each of the HVR regions of the 5D5 graft was soft randomized. This library was panned against immobilized HGFR-Fc for 4 rounds of selection. […] Analysis of this clone by phage ELISA indicated it had similar affinity to that of the monovalent affinity of murine 5D5. […] Thus this unexpected substitution restores full binding affinity to the 5D5 graft, and the 5D5 graft plus R94S (hu5D5.v1) represents a fully humanized antibody. […] MacCallum et al. (MacCallum et al. J. Mol. Biol. 262: 732-745 (1996)) have analyzed antibody and antigen complex crystal structures and found positions 93 and 94 of the heavy chain are part of the contact region thus it seems reasonable to include these positions in the definition of hypervariable region of H3 (HVR-H3) when humanizing antibodies.

[9] = target: T2, human HGF receptor Fc fusion (HGFR-Fc); assay: SPR (Biacore), Fab over immobilized HGFR-Fc; reference hu5D5.v1
Method: as §2
Affinity maturation of hu5D5.v1 —To improve the affinity of hu5D5.v1, six phage display libraries were generated in the background of hu5D5.v1, each targeting a single HVR for soft randomization. To avoid re-selecting hu5D5.v1 from a potential high background of wild-type template, stop codons were introduced into the HVR to be mutated prior to generating each library. A solution sorting method was used to enhance the efficiency of the affinity-based phage selection process. By manipulating the biotinylated target concentration, reducing the phage capture time to lower backgrounds and the addition of unbiotinylated target to eliminate clones with faster off rates, high affinity clones can be proficiently selected. Lee et al., supra. […] After 4 rounds of selection, clones from each of the […] library pools were analyzed. […] Selected clones were screened by phage ELISA and then expressed as Fab protein and their affinity determined using Biacore. […]

[10] = target: T2, human HGF receptor Fc fusion (HGFR-Fc); assay: SPR (BIAcore-2000), HGFR-Fc immobilised on a CM5 chip

B1: OA-5D5.v2 one-armed anti-Met antibody (antibody)
light: DIQMTQSPSSLSASVGDRVTITCKSSQSLLYTSSQKNYLAWYQQKPGKAPKLLIYWASTRESGVPSRFSGSGSGTDFTLTISSLQPEDFATYYCQQYYAYPWTFGQGTKVEIKRTVAAPSVFIFPPSDEQLKSGTASVVCLLNNFYPREAKVQWKVDNALQSGNSQESVTEQDSKDSTYSLSSTLTLSKADYEKHKVYACEVTHQGLSSPVTKSFNRGEC
heavy: not shown
chain: not shown
notes: also called rhuOA5D5v2; one-armed 5D5.v2
- inhibition of HGF receptor activation (KIRA, HGF-dependent Met phosphorylation in A549 cells); IC50 relative to comparator antibodies [1]: < 0.5 fold of the comparator's IC50
- inhibition of cell proliferation in the presence of HGF (BaF3-hMet cells); IC50 relative to comparator antibodies [1]: < 0.5 fold of the comparator's IC50
- binding result (canine HGF receptor): no binding
- binding result [2]: no binding
- IC50 relative to comparator antibody (chimeric one-armed antibody, OA-5D5.v1) [3]: < 0.5 fold of the comparator's IC50
- IC50 [4]: 1 nM

B2: murine 5D5 anti-c-met antibody, monovalent form (Fab, V domains shown)
VH: QVQLQQSGPELVRPGASVKMSCRASGYTFTSYWLHWVKQRPGQGLEWIGMIDPSNSDTRFNPNFKDKATLNVDRSSNTAYMLLSSLTSADSAVYYCATYGSYVSPLDYWGQGTSVTVSS
VL: DIMMSQSPSSLTVSVGEKVTVSCKSSQSLLYTSSQKNYLAWYQQKPGQSPKLLIYWASTRESGVPDRFTGSGSGTDFTLTITSVKADDLAVYYCQQYYAYPWTFGGGTKLEIKR
notes: also called mu5D5; hybridoma 5D5.11.6 (ATCC HB-11895)
- koff [5]: 0.000743 s⁻¹
- kon [5]: 89800 M⁻¹ s⁻¹
- Kd [6]: 8.3 nM

B3: chimeric one-armed 5D5 antibody (Fab arm from the murine parent 5D5 antibody fused to a human Fc region) (antibody, V domains shown)
VH: QVQLQQSGPELVRPGASVKMSCRASGYTFTSYWLHWVKQRPGQGLEWIGMIDPSNSDTRFNPNFKDKATLNVDRSSNTAYMLLSSLTSADSAVYYCATYGSYVSPLDYWGQGTSVTVSS
VL: DIMMSQSPSSLTVSVGEKVTVSCKSSQSLLYTSSQKNYLAWYQQKPGQSPKLLIYWASTRESGVPDRFTGSGSGTDFTLTITSVKADDLAVYYCQQYYAYPWTFGGGTKLEIKR
notes: also called rchOA5D5; chimeric one-armed antibody
- IC50 [4]: 2.6 nM

B4: hu5D5.v1 (5D5 graft plus R94S), expressed as Fab (Fab, V domains shown)
VH: EVQLVESGGGLVQPGGSLRLSCAASGYTFTSYWLHWVRQAPGKGLEWVGMIDPSNSDTRFNPNFKDRFTISADTSKNTAYLQMNSLRAEDTAVYYCASYGSYVSPLDYWGQGTLVTVSS
VL: DIQMTQSPSSLSASVGDRVTITCKSSQSLLYTSSQKNYLAWYQQKPGKAPKLLIYWASTRESGVPSRFSGSGSGTDFTLTISSLQPEDFATYYCQQYYAYPWTFGQGTKVEIK
notes: Fab made in E. coli from the phage display vector (human CL and CH1); also called this clone
- koff [7]: 0.000507 s⁻¹
- kon [7]: 51600 M⁻¹ s⁻¹
- Kd [8]: 9.8 nM

B5: hu5D5.v2 (clone 78), expressed as Fab (Fab, V domains shown)
VH: EVQLVESGGGLVQPGGSLRLSCAASGYTFTSYWLHWVRQAPGKGLEWVGMIDPSNSDTRFNPNFKDRFTISADTSKNTAYLQMNSLRAEDTAVYYCATYRSYVTPLDYWGQGTLVTVSS
VL: DIQMTQSPSSLSASVGDRVTITCKSSQSLLYTSSQKNYLAWYQQKPGKAPKLLIYWASTRESGVPSRFSGSGSGTDFTLTISSLQPEDFATYYCQQYYAYPWTFGQGTKVEIKR
notes: Differs from hu5D5.v1 by 94T, 96R and 100T (Kabat, VH); Fab made in E. coli from the phage display vector (human CL and CH1)
- Kd [7]: 0.625 nM
- koff [7]: 0.000147 s⁻¹
- kon [7]: 236000 M⁻¹ s⁻¹
- fold affinity improvement (against hu5D5.v1) [9]: 13 fold

B6: OA-5D5.v1 one-armed anti-Met antibody (antibody, V domains shown)
VH: EVQLVESGGGLVQPGGSLRLSCAASGYTFTSYWLHWVRQAPGKGLEWVGMIDPSNSDTRFNPNFKDRFTISADTSKNTAYLQMNSLRAEDTAVYYCASYGSYVSPLDYWGQGTLVTVSS
VL: DIQMTQSPSSLSASVGDRVTITCKSSQSLLYTSSQKNYLAWYQQKPGKAPKLLIYWASTRESGVPSRFSGSGSGTDFTLTISSLQPEDFATYYCQQYYAYPWTFGQGTKVEIK
notes: One-armed antibody named only as another antibody of the invention (OA-5D5.v1); Its constant domains and Fc polypeptides are not described; also called rhuOA5D5v1
- IC50 [4]: 5.4 nM

B7: 5D5 graft (direct HVR-graft of murine 5D5 into the human acceptor framework), displayed as an Fab on phage (Fab, V domains shown)
VH: EVQLVESGGGLVQPGGSLRLSCAASGYTFTSYWLHWVRQAPGKGLEWVGMIDPSNSDTRFNPNFKDRFTISADTSKNTAYLQMNSLRAEDTAVYYCARYGSYVSPLDYWGQGTLVTVSS
VL: DIQMTQSPSSLSASVGDRVTITCKSSQSLLYTSSQKNYLAWYQQKPGKAPKLLIYWASTRESGVPSRFSGSGSGTDFTLTISSLQPEDFATYYCQQYYAYPWTFGQGTKVEIK
notes: subgroup III VH with R71A, N73T, L78A; grafted L1 24-34, L2 50-56, L3 89-97, H1 26-35, H2 49-65, H3 95-102; R at 94); In the assay it was a monovalent Fab-g3 fusion on phage with human CL and CH1 of the vector; also called direct HVR-graft of 5D5
- binding result [10]: no binding (tested: 500 nM)
